One series addresses T1, TLR9 (Mus musculus, UniProt Q9EQU3).
T1 construct: using the murine macrophage cell line RAW264.7; endogenous in cells; host or cells: RAW264.7
T1 sequence (Q9EQU3 26-1032): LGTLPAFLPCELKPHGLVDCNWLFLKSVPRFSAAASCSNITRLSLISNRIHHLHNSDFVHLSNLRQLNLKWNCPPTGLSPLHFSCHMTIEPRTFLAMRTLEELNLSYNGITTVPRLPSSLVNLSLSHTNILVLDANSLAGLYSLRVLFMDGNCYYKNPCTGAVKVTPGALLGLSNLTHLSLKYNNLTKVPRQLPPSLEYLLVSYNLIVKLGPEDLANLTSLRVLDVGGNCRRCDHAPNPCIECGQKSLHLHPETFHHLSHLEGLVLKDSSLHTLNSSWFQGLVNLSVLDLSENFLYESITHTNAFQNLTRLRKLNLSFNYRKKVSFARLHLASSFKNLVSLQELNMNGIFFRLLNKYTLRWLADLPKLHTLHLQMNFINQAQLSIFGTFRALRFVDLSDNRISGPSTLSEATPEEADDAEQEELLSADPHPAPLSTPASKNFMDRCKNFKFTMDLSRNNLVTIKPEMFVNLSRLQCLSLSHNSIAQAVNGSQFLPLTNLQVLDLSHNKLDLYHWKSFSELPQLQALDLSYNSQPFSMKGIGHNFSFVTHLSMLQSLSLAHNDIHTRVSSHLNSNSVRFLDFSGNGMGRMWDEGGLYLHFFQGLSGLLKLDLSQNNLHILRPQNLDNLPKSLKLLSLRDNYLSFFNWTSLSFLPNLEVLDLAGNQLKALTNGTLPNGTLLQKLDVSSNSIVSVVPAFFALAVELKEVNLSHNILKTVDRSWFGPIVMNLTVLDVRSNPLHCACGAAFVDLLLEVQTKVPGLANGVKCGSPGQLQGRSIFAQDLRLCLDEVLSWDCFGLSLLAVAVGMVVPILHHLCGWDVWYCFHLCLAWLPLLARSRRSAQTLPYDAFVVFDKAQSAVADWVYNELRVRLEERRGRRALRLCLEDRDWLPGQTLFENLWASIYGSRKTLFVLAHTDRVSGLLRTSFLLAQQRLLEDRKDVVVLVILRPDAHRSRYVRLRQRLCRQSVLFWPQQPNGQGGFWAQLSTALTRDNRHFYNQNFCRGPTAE
The series is described as follows: CpG-induced MIP-2 production in RAW264.7 cells, ELISA. The class given is cell-based, murine. To be noted: peptide 5 or 20 μM 1 h before 1 μg/ml CpG, supernatant 24 h. Here is the method:
FIGS. 1A and B are bar charts showing the effect of peptides derived from A46 on CpG-induced MIP-2 production murine RAW264.7 cells. Cells were seeded in 96 well plates (1.5×10^5 cells/nil) at least 24 hours before treatment. A46 peptides were added to the cells at a concentration of 5 or 20 μM 1 hour before stimulating with 1 μg/ml CpG. Supernatants were collected 24 hours after stimulation and assayed for MIP2 by ELISA. No peptides were added into the control wells (black bars). (A) peptides A461-A467 (SEQ ID NO. 17 to 23). (B) peptides A468-A4614 (SEQ ID NO. 24 to 30) (excluding A4612 SEQ ID NO. 28). Data is representative of at least two experiments each performed in triplicate and is expressed as mean±s.d;
Cytokine and chemokine production from cells or mouse serum was measured by ELISA using Duoset kits from R&D systems, according to the manufacturer's instructions.
These peptides were initially screened for effects on TLR-induced gene induction in vitro using the murine macrophage cell line RAW264.7. Unmethylated CpG dinucleotides of bacterial DNA sequences are detected by TLR9, which leads to production of pro-inflammatory cytokines and chemokines, including TNFα via a MyD88-dependent pathway (Latz et al, 2004). […] The effect of the peptides on two TLR9-induced cytokines, namely TNFα and MIP-2, was measured by ELISA. […]

The next series relates to THP-1 cells. Nature of the series: MTT cell viability assay, THP-1. In kind it is cell-based, human. To be noted: peptide 5 and 10 μM, 10 ng/ml LPS. The protocol: FIGS. 7A and B are bar charts showing the effect of A464 on TNFα production and cell viability of human THP-1 cells stimulated with LPS. Cells were seeded in 96 well plates (3×10^5 cells/ml) and differentiated with 200 nM PMA for 24 hours before treatment. A464 (SEQ ID NO. 20) was added to the cells at a concentration of 5 or 10 μM 1 hour before stimulating with 10 ng/ml LPS. Supernatants were collected 6 hours after stimulation and assayed for TNFα by ELISA (A) and cells were assayed for viability by the MTT assay (B.). No peptides were added to the control wells (black bars). Data is representative of at least three experiments each performed in triplicate and is expressed as mean±s.d;
FIGS. 9A and B are bar charts showing the effect of A464 on Pam3CysK4-induced TNFα in human THP-1 cells. Cells were seeded in 96 well plates (3×10^5 cells/ml) and differentiated with 200 nM PMA for 24 hours before treatment. […] Data is representative of at least three experiments each performed in triplicate and is expressed as mean±s.d;
Cell viability was measured by assessing mitochondrial function using an MTT (3-(4,5-Dimethylthiazol-2-yl)-2,5-diphenyltetrazolium bromide) assay. […] MTT was then removed and 200 μl per well of dimethyl sulphoxide (DMSO) was added and cells incubated for 20 min at 37° C. in the dark, prior to absorbance being read at 595 nm on a spectrophotometer.

The record followed here is patent US8722052B2, “Vaccinia virus protein A46 peptide and use thereof” (priority 2008, dated 2014).

For the sequence KYSFKLILAEYRRRRRRRRR [Peptide A464], in the series with TLR9, the “inhibition of CpG-induced MIP-2 secretion” value is “little or no effect”. The “cytotoxicity (MTT)” value with THP-1 cells is given as “no cytotoxicity”.
